Assay results from the RNAGym collection of RNA variant scans (doi:10.1021/acssynbio.7b00057).

B1: Pistol ribozyme (parent)
chain: GGGUCGUUGUUCCAUAAUCGCGUGGAUAUGGCACGCAAGUUUCUACCGGGCACCGUAAAUGUCCGACUGGAGCCGUUCGGGCGGCUAUAAACAGACCUCAGGCCCGAAGCGUGGCGGCACCUGCCGCCGGUGGUAAAAAAGAUCGGAAGAGCACACGUCU

Variants of: B1
Assay: aptazyme ON/OFF ratio, guanine; higher = stronger switching; co-transcriptional cleavage with and without guanine

Question: With U8C G9C U10A U11A C12U C13G as the variant, how does the “aptazyme ON/OFF ratio” value read?
Answer: 1.1

Question: For U8C G9C U10A U11A C12U C13A, which “aptazyme ON/OFF ratio” value is on record?
Answer: 1.09

Question: With U8C G9C U10A U11A C12U C13U as the variant, how does the “aptazyme ON/OFF ratio” value read?
Answer: 1.08

Question: Which “aptazyme ON/OFF ratio” value does the source give for U8C G9C U10G U11G C12G C13A here?
Answer: 1.13

Question: With U8C G9C U10G U11G C12G C13U as the variant, how does the “aptazyme ON/OFF ratio” value read?
Answer: 1.11

Question: For U8C G9C U10G U11G C12G C13G, which “aptazyme ON/OFF ratio” value is on record?
Answer: 1.1

Question: For U8C G9U U10C C12A C13A, which “aptazyme ON/OFF ratio” value is on record?
Answer: 1.1

Question: For U8C G9U U10C C12A C13G, which “aptazyme ON/OFF ratio” value is on record?
Answer: 1.11

Question: Which “aptazyme ON/OFF ratio” value does the source give for U8C G9C C12U here?
Answer: 1.08

Question: Which “aptazyme ON/OFF ratio” value does the source give for U8C G9C U11C C13U here?
Answer: 1.04

Question: For U8C G9C U11C C13A, which “aptazyme ON/OFF ratio” value is on record?
Answer: 1.11

Question: For U8C G9C U11C C13G, which “aptazyme ON/OFF ratio” value is on record?
Answer: 1.04

Question: For U8C G9C U10C C12A C13U, which “aptazyme ON/OFF ratio” value is on record?
Answer: 1.03

Question: With U8C G9C U10C C12A C13A as the variant, how does the “aptazyme ON/OFF ratio” value read?
Answer: 1

Question: Which “aptazyme ON/OFF ratio” value does the source give for U8C G9C U10C C12A C13G here?
Answer: 1.08

Question: With U8C G9U U10A U11C C13A as the variant, how does the “aptazyme ON/OFF ratio” value read?
Answer: 1.09

Question: Which “aptazyme ON/OFF ratio” value does the source give for U8C G9U U10A U11C C13U here?
Answer: 1.02

Question: With U8C G9U U10A U11C C13G as the variant, how does the “aptazyme ON/OFF ratio” value read?
Answer: 1.06

Question: With U8C G9U U10A C12A as the variant, how does the “aptazyme ON/OFF ratio” value read?
Answer: 1.8

Question: For U8C G9U U10A C12U, which “aptazyme ON/OFF ratio” value is on record?
Answer: 1.56

Question: For U8C G9U U10A C12G, which “aptazyme ON/OFF ratio” value is on record?
Answer: 1.27

Question: With U8C G9C U10A C12A C13G as the variant, how does the “aptazyme ON/OFF ratio” value read?
Answer: 1.15

Question: For U8C G9C U10A C12A C13U, which “aptazyme ON/OFF ratio” value is on record?
Answer: 1.11

Question: For U8C G9C U10A C12A C13A, which “aptazyme ON/OFF ratio” value is on record?
Answer: 1.09

Question: With U8C G9C U10G U11G C12A as the variant, how does the “aptazyme ON/OFF ratio” value read?
Answer: 1.15

Question: Which “aptazyme ON/OFF ratio” value does the source give for U8C G9C U10G U11G C12G here?
Answer: 1.13

Question: Which “aptazyme ON/OFF ratio” value does the source give for U8C G9C U10G U11G C12U here?
Answer: 1.09

Question: Which “aptazyme ON/OFF ratio” value does the source give for U8C G9U U10A U11C C12U here?
Answer: 1.11

Question: Which “aptazyme ON/OFF ratio” value does the source give for U8C G9U U10A U11C C12A here?
Answer: 1.37

Question: With U8C G9U U10A U11C C12G as the variant, how does the “aptazyme ON/OFF ratio” value read?
Answer: 1.21

Question: With U8C G9C U10C U11A C12G C13U as the variant, how does the “aptazyme ON/OFF ratio” value read?
Answer: 1.1

Question: For U8C G9C U10C U11A C12G C13G, which “aptazyme ON/OFF ratio” value is on record?
Answer: 1.08

Question: For U8C G9C U10C U11A C12G C13A, which “aptazyme ON/OFF ratio” value is on record?
Answer: 1.06

Question: For U8C G9C U10G U11C C12G C13G, which “aptazyme ON/OFF ratio” value is on record?
Answer: 1.18

Question: Which “aptazyme ON/OFF ratio” value does the source give for U8C G9C U10G U11C C12G C13A here?
Answer: 1.14

Question: For U8C G9C U10G U11C C12G C13U, which “aptazyme ON/OFF ratio” value is on record?
Answer: 1.17

Question: Which “aptazyme ON/OFF ratio” value does the source give for U8C G9C U11A C12U here?
Answer: 1.08

Question: For U8C G9C U11A C12A, which “aptazyme ON/OFF ratio” value is on record?
Answer: 1.22

Question: With U8C G9C U11A C12G as the variant, how does the “aptazyme ON/OFF ratio” value read?
Answer: 1.18

Question: Which “aptazyme ON/OFF ratio” value does the source give for U8C G9U U10A U11C C12G C13U here?
Answer: 1.31

Question: For U8C G9U U10A U11C C12G C13A, which “aptazyme ON/OFF ratio” value is on record?
Answer: 1.25

Question: For U8C G9U U10A U11C C12G C13G, which “aptazyme ON/OFF ratio” value is on record?
Answer: 1.28

Question: Which “aptazyme ON/OFF ratio” value does the source give for U8C G9C U11G C12G C13G here?
Answer: 1.12

Question: For U8C G9C U11G C12G C13U, which “aptazyme ON/OFF ratio” value is on record?
Answer: 1.09

Question: With U8C G9C U11G C12G C13A as the variant, how does the “aptazyme ON/OFF ratio” value read?
Answer: 1.12

Question: For U8C G9C U10C U11C C12G C13U, which “aptazyme ON/OFF ratio” value is on record?
Answer: 1.06

Question: Which “aptazyme ON/OFF ratio” value does the source give for U8C G9C U10C U11C C12G C13A here?
Answer: 1.12

Question: Which “aptazyme ON/OFF ratio” value does the source give for U8C G9C U10C U11C C12G C13G here?
Answer: 1.09

Question: With U8C G9C U10A U11A C13U as the variant, how does the “aptazyme ON/OFF ratio” value read?
Answer: 1.09

Question: For U8C G9C U10A U11A C13G, which “aptazyme ON/OFF ratio” value is on record?
Answer: 1.17

Question: Which “aptazyme ON/OFF ratio” value does the source give for U8C G9C U10A U11A C13A here?
Answer: 1.15

Question: With U8C G9C U10A U11A C12A C13G as the variant, how does the “aptazyme ON/OFF ratio” value read?
Answer: 1.11

Question: For U8C G9C U10A U11A C12A C13U, which “aptazyme ON/OFF ratio” value is on record?
Answer: 1.08

Question: For U8C G9C U10A U11A C12A C13A, which “aptazyme ON/OFF ratio” value is on record?
Answer: 1.07

Question: For U8C G9U C12A C13G, which “aptazyme ON/OFF ratio” value is on record?
Answer: 1.12

Question: Which “aptazyme ON/OFF ratio” value does the source give for U8C G9U C12A C13A here?
Answer: 1.28

Question: Which “aptazyme ON/OFF ratio” value does the source give for U8C G9U C12A C13U here?
Answer: 1.19

Question: For U8C G9U U10A U11G C12U C13U, which “aptazyme ON/OFF ratio” value is on record?
Answer: 1.2

Question: For U8C G9U U10A U11G C12U C13G, which “aptazyme ON/OFF ratio” value is on record?
Answer: 1.14

Question: Which “aptazyme ON/OFF ratio” value does the source give for U8C G9U U10A U11G C12U C13A here?
Answer: 1.12

Question: Which “aptazyme ON/OFF ratio” value does the source give for U8C G9C U11A C12A C13U here?
Answer: 1.05

Question: With U8C G9C U11A C12A C13A as the variant, how does the “aptazyme ON/OFF ratio” value read?
Answer: 1.09

Question: With U8C G9C U11A C12A C13G as the variant, how does the “aptazyme ON/OFF ratio” value read?
Answer: 1.12

Question: With U8C G9C U11G C13A as the variant, how does the “aptazyme ON/OFF ratio” value read?
Answer: 1.09

Question: Which “aptazyme ON/OFF ratio” value does the source give for U8C G9C U11G C13G here?
Answer: 1.19

Question: With U8C G9C U11G C13U as the variant, how does the “aptazyme ON/OFF ratio” value read?
Answer: 1.1

Question: For U8C G9C U10A C12U C13U, which “aptazyme ON/OFF ratio” value is on record?
Answer: 1.14

Question: Which “aptazyme ON/OFF ratio” value does the source give for U8C G9C U10A C12U C13A here?
Answer: 1.08

Question: With U8C G9C U10A C12U C13G as the variant, how does the “aptazyme ON/OFF ratio” value read?
Answer: 1.12

Question: For U8C G9C C12U C13U, which “aptazyme ON/OFF ratio” value is on record?
Answer: 1.13

Question: For U8C G9C C12U C13G, which “aptazyme ON/OFF ratio” value is on record?
Answer: 1.07

Question: Which “aptazyme ON/OFF ratio” value does the source give for U8C G9C C12U C13A here?
Answer: 1.05

Question: With U8C G9C U10A C12G C13G as the variant, how does the “aptazyme ON/OFF ratio” value read?
Answer: 1.15

Question: With U8C G9C U10A C12G C13A as the variant, how does the “aptazyme ON/OFF ratio” value read?
Answer: 1.2

Question: With U8C G9C U10A C12G C13U as the variant, how does the “aptazyme ON/OFF ratio” value read?
Answer: 1.2

Question: Which “aptazyme ON/OFF ratio” value does the source give for U8C G9C U10G U11A C12A C13G here?
Answer: 1.1

Question: Which “aptazyme ON/OFF ratio” value does the source give for U8C G9C U10G U11A C12A C13A here?
Answer: 1.16

Question: With U8C G9C U10G U11A C12A C13U as the variant, how does the “aptazyme ON/OFF ratio” value read?
Answer: 1.1

Question: For U8C G9C U10C C12G C13A, which “aptazyme ON/OFF ratio” value is on record?
Answer: 1.07

Question: For U8C G9C U10C C12G C13G, which “aptazyme ON/OFF ratio” value is on record?
Answer: 1.12

Question: Which “aptazyme ON/OFF ratio” value does the source give for U8C G9C U10C C12G C13U here?
Answer: 1.08

Question: Which “aptazyme ON/OFF ratio” value does the source give for U8C G9U U10A U11A C12U C13G here?
Answer: 1.2

Question: For U8C G9U U10A U11A C12U C13U, which “aptazyme ON/OFF ratio” value is on record?
Answer: 1.5
